How the values were obtained:
Experiment in all cases: Quantitative phosphorylation assay of T33-Sic1ΔC constructs and recombinant substrates
Assay type in all cases: biochemical
Conditions in all cases: Table S2; purified protein substrate; relative values, not divided by [S]
Clb5hpm-Cdk1 = target: T1, Clb5hpm-Cdk1 (Saccharomyces cerevisiae, UniProt P00546)
T1 construct: made in house; host or cells: S. cerevisiae strain DOM0963 (gal-CLB5hpm-TAP, sic1 deleted); Cks1 from bacteria
Method: (§1) For the quantitative phosphorylation assays of T33-Sic1ΔC constructs and recombinant substrates, substrate concentrations were kept in the range of 0.5–2 μM (in the linear [S] versus v0 range, several-fold below the estimated KM value), and initial velocity conditions were defined as an initial substrate turnover of up to 10% of the total turnover. For the steady-state peptide kinetics of the Histone peptide PKTPKKAKKL, a similar assay composition was used as for protein substrates, and phosphocellulose paper was used for the quantification of the phosphorylated substrate.
(§2) Supplemental Experimental Procedures
(§3) Plasmid constructs and yeast strains
(§4) For tandem affinity purification (TAP) of cyclin-Cdk1 complexes, the cyclin genes were cloned into the 2 micron vector pRSAB1234 containing a GAL1 promoter and the C-terminal TAP-tag. To purify different 6His-T33-Sic1ΔC forms for kinase assays, the C-terminally truncated fragment of Sic1 (with a stop codon inserted after amino acid 215) was cloned into the NheI/BamHI site of the bacterial expression vector pET28a (Invitrogen). Mutagenesis of cyclins or substrates was performed using single-stranded pRSAB1234 or pET28a vector constructs as templates. The triple mutants in the hydrophobic patch (hpm) of Clb5 and Clb2 were described previously (Loog and Morgan, 2005), and the hpm of Clb3 (Phe-201, Leu-205 and Trp-208 mutated to alanines) was designed according to sequence homology with other B-type cyclins. In T33-Sic1ΔC constructs, the other Cdk sites bearing the consensus motif S/T-P were mutated to Ala-Ala in order to prevent any possible (pseudo)substrate competition. The other Cdk substrates were cloned as full-length forms into bacterial expression vectors pET28a or pGEX-4T-1. Cdh1 was purified using the baculovirus system and was a kind gift from Monica Rodrigo-Brenni (UCSF). […]
The […]
(§5) pRSAB1234 analogously to the cyclin-Cdk1 complexes. For C-terminal tagging of cyclin genes in their chromosomal loci, the Pringle method was applied (Longtine et al., 1998). Lists of plasmid […]
(§6) The TAP method was applied for purification of cyclin-Cdk1 complexes and Swe1 as described previously for Clb5-TAP-Cdk1 and Clb2-TAP-Cdk1 (Puig et al., 2001; Ubersax et al., 2003). […]
(§7) tagged recombinant T33-Sic1ΔC constructs and substrates were cloned into the pET28a vector and purified by standard cobalt affinity chromatography and elution with 200 mM imidazole. 6His-Fin1 was purified as described previously (Woodbury and Morgan, 2007). Substrates cloned into the pGEX-4T-1 were purified on glutathione agarose columns using 5 mM reduced glutathione for elution. Cks1 was purified as described previously (Reynard et al., 2000). The optimal working concentration for purified Cks1 was taken as 500 nM based on optimization performed for cyclin-Cdk1 preparations and T33-Sic1ΔC as a substrate.
(§8) For the quantitative phosphorylation assays of T33-Sic1ΔC constructs and recombinant substrates, substrate concentrations were kept in the range of 0.5-2 μM (in the linear [S] vs v0 range, several-fold below the estimated KM value), and the initial velocity conditions were defined as an initial substrate turnover ranging up to 10% of the total turnover. The latter was estimated by a long-term incubation with excess amounts of cyclin-Cdk1 and 32P-γ-ATP in the standard reaction mixture given below. About 1-10 nM of purified kinase complex was used, reaction aliquots were taken at two or more time points, and the reaction was stopped by SDS-PAGE sample buffer. The relative kcat/KM values for the substrates were calculated as the ratio of v0/[S], which was determined from at least two independent experiments. The basal composition of the assay mixture contained 50 mM Hepes, pH 7.4, 100 mM NaCl, 0.1% NP-40, 20 mM imidazole, 0.1 mg/ml 2HA peptide, 2% glycerol, 2 mM EGTA, 0.2 mg/ml BSA, […], and 500 μM ATP (with added 32P-γ-ATP (Perkin Elmer)).
(§9) About 1-10 nM of purified kinase complex was used, reaction aliquots were taken at two or more […]

Clb3hpm-Cdk1 = target: T2, Clb3hpm-Cdk1 (Saccharomyces cerevisiae, UniProt P00546+P24870)
T2 construct: made in house; host or cells: S. cerevisiae strain MK0168 (gal-CLB3hpm-TAP, sic1 deleted); Cks1 from bacteria
Method: as §1, §2, §3, §4
The […]
as §5, §6, §7, §8, §9

Clb2hpm-Cdk1 = target: T3, Clb2hpm-Cdk1 (Saccharomyces cerevisiae, UniProt P00546)
T3 construct: made in house; host or cells: S. cerevisiae strain DOM0964 (gal-CLB2hpm-TAP, sic1 deleted); Cks1 from bacteria
Method: as §1, §2, §3, §4
The […]
as §5, §6, §7, §8, §9

Clb2-Cdk1 = target: T4, Clb2-Cdk1 (Saccharomyces cerevisiae, UniProt P00546+P24869)
T4 construct: We purified the four cyclin-Cdk1 complexes from yeast; made in house; host or cells: S. cerevisiae strain DOM0077 (gal-CLB2-TAP, sic1 deleted); Cks1 from bacteria

Cln2-Cdk1 = target: T5, Cln2-Cdk1 (Saccharomyces cerevisiae, UniProt P00546+P20438)
T5 construct: We purified the four cyclin-Cdk1 complexes from yeast; made in house; host or cells: S. cerevisiae strain DMY305 (galactose-induced); Cks1 from bacteria

Clb3-Cdk1 = target: T6, Clb3-Cdk1 (Saccharomyces cerevisiae, UniProt P00546+P24870)
T6 construct: We purified the four cyclin-Cdk1 complexes from yeast; made in house; host or cells: S. cerevisiae strain DOM0957 (gal-CLB3-TAP, sic1 deleted); Cks1 from bacteria

Clb5-Cdk1 = target: T7, Clb5-Cdk1 (Saccharomyces cerevisiae, UniProt P00546+P30283)
T7 construct: We purified the four cyclin-Cdk1 complexes from yeast; made in house; host or cells: S. cerevisiae strain DOM0076 (gal-CLB5-TAP, sic1 deleted); Cks1 from bacteria
T7 sequence (P00546 2-298 limits assumed): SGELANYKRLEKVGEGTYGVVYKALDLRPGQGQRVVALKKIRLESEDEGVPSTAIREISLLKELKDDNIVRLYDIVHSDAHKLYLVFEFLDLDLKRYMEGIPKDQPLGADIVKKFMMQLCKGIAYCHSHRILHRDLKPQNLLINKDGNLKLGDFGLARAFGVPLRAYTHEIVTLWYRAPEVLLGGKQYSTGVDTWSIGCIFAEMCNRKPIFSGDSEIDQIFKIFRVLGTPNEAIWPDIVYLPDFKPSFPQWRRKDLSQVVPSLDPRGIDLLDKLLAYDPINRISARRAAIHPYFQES
T7 sequence (P30283 whole entry partner): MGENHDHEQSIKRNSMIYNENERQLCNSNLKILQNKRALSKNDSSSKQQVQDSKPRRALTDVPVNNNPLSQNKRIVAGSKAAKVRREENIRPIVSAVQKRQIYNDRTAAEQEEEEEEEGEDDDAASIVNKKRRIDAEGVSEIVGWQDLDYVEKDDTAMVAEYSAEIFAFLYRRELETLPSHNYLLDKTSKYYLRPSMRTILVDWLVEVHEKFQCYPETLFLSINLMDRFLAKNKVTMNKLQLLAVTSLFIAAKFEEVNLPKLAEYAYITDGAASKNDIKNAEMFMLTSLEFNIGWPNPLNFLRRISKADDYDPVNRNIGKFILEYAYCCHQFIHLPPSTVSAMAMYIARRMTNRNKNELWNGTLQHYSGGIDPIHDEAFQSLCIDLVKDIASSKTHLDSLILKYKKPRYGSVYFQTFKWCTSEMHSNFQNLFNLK
T7 sequence (P20486 whole entry partner): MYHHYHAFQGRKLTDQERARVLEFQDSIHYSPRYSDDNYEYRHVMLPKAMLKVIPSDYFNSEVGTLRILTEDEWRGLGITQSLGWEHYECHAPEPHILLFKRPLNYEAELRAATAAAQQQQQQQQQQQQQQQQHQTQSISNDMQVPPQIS

T1 sequence (P00546 2-298 limits assumed): as the sequence (P00546 2-298 limits assumed) above
T5 sequence (P00546 2-298 limits assumed): as above
T5 sequence (P20438 whole entry partner): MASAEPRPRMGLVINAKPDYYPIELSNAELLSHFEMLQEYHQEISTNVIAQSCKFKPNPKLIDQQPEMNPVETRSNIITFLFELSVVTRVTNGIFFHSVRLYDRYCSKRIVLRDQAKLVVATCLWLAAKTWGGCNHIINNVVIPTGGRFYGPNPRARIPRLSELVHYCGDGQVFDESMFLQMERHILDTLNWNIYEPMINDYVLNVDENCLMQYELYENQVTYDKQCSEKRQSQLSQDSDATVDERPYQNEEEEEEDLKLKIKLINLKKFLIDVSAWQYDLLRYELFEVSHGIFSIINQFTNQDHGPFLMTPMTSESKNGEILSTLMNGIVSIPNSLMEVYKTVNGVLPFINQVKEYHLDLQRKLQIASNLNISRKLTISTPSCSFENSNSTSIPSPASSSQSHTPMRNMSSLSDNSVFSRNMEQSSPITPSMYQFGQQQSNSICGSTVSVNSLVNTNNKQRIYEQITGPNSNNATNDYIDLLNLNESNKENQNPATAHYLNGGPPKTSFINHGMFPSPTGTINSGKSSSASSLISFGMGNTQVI
T5 sequence (P20486 whole entry partner): as the sequence (P20486 whole entry partner) above
T6 sequence (P00546 2-298 limits assumed): as the sequence (P00546 2-298 limits assumed) above
T6 sequence (P24870 whole entry partner): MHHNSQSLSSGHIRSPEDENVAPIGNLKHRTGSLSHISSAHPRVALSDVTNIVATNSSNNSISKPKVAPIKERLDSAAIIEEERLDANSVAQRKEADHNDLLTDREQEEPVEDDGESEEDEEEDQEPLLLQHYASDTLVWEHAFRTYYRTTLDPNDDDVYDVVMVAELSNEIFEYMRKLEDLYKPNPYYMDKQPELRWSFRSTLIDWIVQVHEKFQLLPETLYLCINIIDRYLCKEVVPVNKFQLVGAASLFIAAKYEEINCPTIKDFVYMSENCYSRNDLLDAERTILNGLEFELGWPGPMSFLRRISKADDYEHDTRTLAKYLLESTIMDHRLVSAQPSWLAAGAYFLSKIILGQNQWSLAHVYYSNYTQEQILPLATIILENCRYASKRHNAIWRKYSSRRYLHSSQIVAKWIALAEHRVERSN
T6 sequence (P20486 whole entry partner): as the sequence (P20486 whole entry partner) above
T3 sequence (P00546 2-298 limits assumed): as the sequence (P00546 2-298 limits assumed) above
T4 sequence (P00546 2-298 limits assumed): as above
T4 sequence (P24869 2-491 partner limits assumed): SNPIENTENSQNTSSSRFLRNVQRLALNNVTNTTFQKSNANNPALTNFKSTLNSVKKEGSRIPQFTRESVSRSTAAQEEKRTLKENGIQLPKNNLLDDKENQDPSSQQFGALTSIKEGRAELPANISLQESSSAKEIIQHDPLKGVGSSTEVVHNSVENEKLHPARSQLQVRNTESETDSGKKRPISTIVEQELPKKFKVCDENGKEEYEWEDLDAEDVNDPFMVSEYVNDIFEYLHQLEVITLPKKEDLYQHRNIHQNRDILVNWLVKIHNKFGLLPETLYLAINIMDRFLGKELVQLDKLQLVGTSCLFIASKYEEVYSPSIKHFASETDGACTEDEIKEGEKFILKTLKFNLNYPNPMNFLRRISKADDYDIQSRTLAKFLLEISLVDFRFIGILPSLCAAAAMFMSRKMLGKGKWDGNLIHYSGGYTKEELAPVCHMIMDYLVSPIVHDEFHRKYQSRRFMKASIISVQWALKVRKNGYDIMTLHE
T4 sequence (P20486 whole entry partner): as the sequence (P20486 whole entry partner) above

| Molecule | kcat/KM, Clb5hpm (Clb5hpm-Cdk1) [relative units] | kcat/KM, Clb3hpm (Clb3hpm-Cdk1) [relative units] | kcat/KM, Clb2hpm (Clb2hpm-Cdk1) [relative units] | kcat/KM, Clb2 (Clb2-Cdk1) [relative units] | kcat/KM, Cln2 (Cln2-Cdk1) [relative units] | kcat/KM, Clb3 (Clb3-Cdk1) [relative units] | kcat/KM, Clb5 (Clb5-Cdk1) [relative units] |
| --- | --- | --- | --- | --- | --- | --- | --- |
| SLI15: purified yeast protein tested as Cdk1 substrate (protein, UniProt P38283 1-698, looked up) Inner centromere protein SLI15: MDWAIKAARKKTQRKPGSTRSIIETLDDLNNLTTDAHSEINQRLYESSEWLRNNVYMNTLKYEDKKMEESLISPENTHNKMDVEFPKMKGEYELSNSQNDAAKDVTKTPRNGLHNDKSITPKSLRRKEVTEGMNRFSIHDTNKSPVEPLNSVKVDANESEKSSPWSPYKVEKVLRESSKTSESPINTKRFDNQTWAAKEEMENEPILQALKKAESVKVKPPPNSGIARSQRRSNMFVPLPNKDPLIIQHIPPTKSSGSIPKVRTVKESPIAFKKKSTINSPAIRAVENSDTAGSTKASSVFDRLSSIPTKSFENKISRGNVGHKYSSSSIDLTGSPMKKVSQKFKSINSTDTDMQEALRDIFSVKNKITKNNSPKGKNSRKSSIPRFDKTSLKLTTHKKLAIIAEQKKKSKHSSDVHKTGSRPHSISPTKISVDSSSPSKEVKNYYQSPVRGYLRPTKASISPNKNKNLTTSQTPHRLKIKEKTLRKLSPNIADISKPESRKSKNYRLTNLQLLPPAEAERDDLKKKFDKRLSGIMRSQQEHHRRKQEKQKRMSHLEQDLKKQTSFSNDYKDIRLKESLAPFDNHVRDTINKNTAFSTDNILATINTVDHREIIGNVTPKIASVNDSLPEINTDSEDEASVTLAAWAKSPYLQEQLIRQQDINPQTIFGPIPPLHTDEIFPNPRLNRLKPRQIVPKRS | 0.004 | 0.032 | 0.060 | 0.109 | 0.422 | 0.141 | 0.025 |
| PXL1: purified yeast protein tested as Cdk1 substrate (protein, UniProt P36166 1-706, looked up) Paxillin-like protein 1: MYNSIYGSPFPKINPKVRYKTALERAGFDTKPRNPFSSQRNASTGSLQASVKSPPITRQRNVSAAPSVPVTMKSAYTASSKSAYSSVKGESDIYPPPVLENSERRSVTPPKNSNFTSSRPSDISRSISRPSERASQEDPFRFERDLDRQAEQYAASRHTCKSPANKEFQAADNFPFNFEQEDAGNTEREQDLSPIERSFMMLTQNDTASVVNSMNQTDNRGVLDQKLGKEQQKEESSIEYESEGQQEDENDIESLNFEPDPKLQMNLENEPLQDDFPEAKQEEKNTEPKIPEINVTRESNTPSLTMNALDSKIYPDDNFSGLESSKEQKSPGVSSSSTKVEDLSLDGLNEKRLSITSSENVETPYTATNLQVEQLIAQLDDVSLSRNAKLDMNGNCLNAVDRKASRFKKSSAYLSGYPSMDIPVTQQTSIVQNSNTNLSRQTILVDKGDVDEDAPSESTTNGGTPIFYKFKQSNVEYSNNEGMGSQETFRTKLPTIEALQLQHKRNITDLREEIDNSKSNDSHVLPNGGTTRYSSDADYKETEPIEFKYPPGEGPCRACGLEVTGKRMFSKKENELSGQWHRECFKCIECGIKFNKHVPCYILGDEPYCQKHYHEENHSICKVCSNFIEGECLENDKVERFHVDCLNCFLCKTAITNDYYIFNGEIPLCGNHDMEALLKEGIDNATSSNDKNNTLSKRRTRLINFN | 0.015 | 0.033 | 0.244 | 0.571 | 0.031 | 0.139 | 0.031 |

Reference: paper PMC3115021, “Dynamics of Cdk1 Substrate Specificity during the Cell Cycle” (Molecular Cell, 2011)
